Patent US20200392227A1 (LYVGEN BIOPHARMA, published 2020)
Like-named read-outs stand apart in the source and are kept apart here.

How the values were obtained:
Assay in all cases: BLI
[1] = target: T1, human FcRIIA protein (MednaBio, E1033) (human, UniProt P12318 34-218, limits assumed)
T1 construct: Bought; also called FcγRIIA
T1 sequence (looked up): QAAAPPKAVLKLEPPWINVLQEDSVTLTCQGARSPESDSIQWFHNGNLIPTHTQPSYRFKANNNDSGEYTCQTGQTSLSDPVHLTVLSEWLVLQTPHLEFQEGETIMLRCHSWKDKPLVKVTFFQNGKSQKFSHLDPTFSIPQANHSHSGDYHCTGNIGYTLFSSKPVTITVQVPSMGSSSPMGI
Description: (§1) These IgG mutants were tested for binding to a panel of human Fc receptors (FcRs), including FcRn, using the Octet Red96 System (ForteBio, Model #Red96). Human FcR proteins were purchased commercially (FcRn, MednaBio, E1032; FcRI, MednaBio, E1031; FcRIIA, MednaBio, E1033; FcRIIB/C, MednaBio, E1034; FcRIIIA-F158, MednaBio, E1036; FcRIIIA-V158, MednaBio, E1035; FcRIIIB, MednaBio, E1037). All Fey receptor assays were performed at pH 7.2; all FcRn assays were performed at pH 6. The Fey receptors were loaded onto anti-penta-HIS1K (ForteBio, Cat #18-5122) biosensors at a concentration of 20 μg/mL. The loaded biosensors was then be dipped into an 8-point 1:3 dilution series of the test IgG molecules (including controls and the mutants described herein) in PBS with 0.1% BSA, 0.02% Tween-20 (pH 7.2) at a starting concentration of 300 nM. Kinetic analysis was performed using a 1:1 binding model and global fitting.

[2] = target: T2, human FcRn protein (MednaBio, E1032) (human, UniProt P55899 24-297; P61769 21-119)
T2 construct: Bought; assays at pH 6
Description: as §1

[3] = target: T1, human FcRIIA protein (MednaBio, E1033); remark: listed apart in the source
Description: as §1

[4] = target: T2, human FcRn protein (MednaBio, E1032); remark: listed apart in the source
Description: as §1

[5] = target: T1, human FcRIIA protein (MednaBio, E1033); remark: listed apart in the source
Procedure, shortened: (§2)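 Binding was measured by biolayer interferometry on an Octet Red96 System. Commercial human Fc receptor proteins were loaded at 20 μg/mL onto anti-penta-HIS biosensors, which were then dipped into an 8-point 1:3 dilution series of test IgG starting at 300 nM in PBS with 0.1% BSA and 0.02% Tween-20, at pH 7.2 for Fcγ receptors and pH 6 for FcRn. Kd, kon and koff were obtained by global fitting, with data fitted to a 1:1 binding model.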

[6] = target: T2, human FcRn protein (MednaBio, E1032); remark: listed apart in the source
Procedure, shortened: as §2

[7] = target: T1, human FcRIIA protein (MednaBio, E1033); remark: listed apart in the source
Procedure, shortened: as §2

[8] = target: T2, human FcRn protein (MednaBio, E1032); remark: listed apart in the source
Procedure, shortened: as §2

[9] = target: T1, human FcRIIA protein (MednaBio, E1033); remark: listed apart in the source
Procedure, shortened: as §2

[10] = target: T2, human FcRn protein (MednaBio, E1032); remark: listed apart in the source
Procedure, shortened: as §2

[11] = target: T1, human FcRIIA protein (MednaBio, E1033); remark: listed apart in the source
Procedure, shortened: as §2

[12] = target: T2, human FcRn protein (MednaBio, E1032); remark: listed apart in the source
Procedure, shortened: as §2

[13] = target: T3, human FcRI protein (MednaBio, E1031) (human, UniProt P12314 16-288, limits assumed)
T3 construct: Bought; loaded on anti-penta-HIS biosensors; also called FcγRI
Procedure, shortened: as §2

[14] = target: T4, human FcRIIB/C protein (MednaBio, E1034) (human, UniProt P31994 43-217, limits assumed)
T4 construct: Bought as FcRIIB/C; also called FcγRIIB; CD32B
T4 sequence (looked up): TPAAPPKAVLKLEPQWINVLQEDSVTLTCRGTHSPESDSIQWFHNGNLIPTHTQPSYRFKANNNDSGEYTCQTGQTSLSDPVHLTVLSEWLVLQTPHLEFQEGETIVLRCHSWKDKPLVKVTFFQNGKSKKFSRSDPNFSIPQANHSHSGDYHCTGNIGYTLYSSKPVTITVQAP
Procedure, shortened: as §2

[15] = target: T2, human FcRn protein (MednaBio, E1032); remark: listed apart in the source
Procedure, shortened: as §2

[16] = target: T1, human FcRIIA protein (MednaBio, E1033); remark: listed apart in the source
Procedure, shortened: as §2

T2 sequence (P55899 24-297 limits assumed, form in doubt, chain 1 of 2): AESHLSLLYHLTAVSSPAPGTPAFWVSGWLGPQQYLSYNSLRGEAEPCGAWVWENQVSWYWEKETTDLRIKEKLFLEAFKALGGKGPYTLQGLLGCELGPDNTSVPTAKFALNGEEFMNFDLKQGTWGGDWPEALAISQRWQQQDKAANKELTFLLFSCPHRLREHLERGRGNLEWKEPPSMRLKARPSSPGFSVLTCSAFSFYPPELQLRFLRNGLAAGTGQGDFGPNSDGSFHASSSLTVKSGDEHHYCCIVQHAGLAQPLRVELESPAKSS
T2 sequence (P61769 21-119 limits assumed, form in doubt, chain 2 of 2): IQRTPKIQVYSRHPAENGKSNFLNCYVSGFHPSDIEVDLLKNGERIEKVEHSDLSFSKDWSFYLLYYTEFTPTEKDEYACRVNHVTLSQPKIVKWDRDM
T3 sequence (P12314 16-288 limits assumed): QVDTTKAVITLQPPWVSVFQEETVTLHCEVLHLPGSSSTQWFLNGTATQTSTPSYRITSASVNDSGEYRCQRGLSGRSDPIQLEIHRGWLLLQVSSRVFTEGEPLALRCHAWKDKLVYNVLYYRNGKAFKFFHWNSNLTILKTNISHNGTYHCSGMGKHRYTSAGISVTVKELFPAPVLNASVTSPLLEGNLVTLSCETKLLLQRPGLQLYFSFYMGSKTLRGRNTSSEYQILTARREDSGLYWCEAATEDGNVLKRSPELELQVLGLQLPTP

B1: wild-type human IgG2 control (antibody)
heavy: EVQLVQSGAEVKKPGESLRISCKGSGYSFSTYWISWVRQMPGKGLEWMGKIYPGDSYTNYSPSFQGQVTISADKSISTAYLQWSSLKASDTAMYYCARGYGIFDYWGQGTLVTVSSASTKGPSVFPLAPCSRSTSESTAALGCLVKDYFPEPVTVSWNSGALTSGVHTFPAVLQSSGLYSLSSVVTVPSSNFGTQTYTCNVDHKPSNTKVDKTVERKCCVECPPCPAPPVAGPSVFLFPPKPKDTLMISRTPEVTCVVVDVSHEDPEVQFNWYVDGVEVHNAKTKPREEQFNSTFRVVSVLTVVHQDWLNGKEYKCKVSNKGLPAPIEKTISKTKGQPREPQVYTLPPSREEMTKNQVSLTCLVKGFYPSDIAVEWESNGQPENNYKTTPPMLDSDGSFFLYSKLTVDKSRWQQGNVFSCSVMHEALHNHYTQKSLSLSPGK
light: SYELTQPPSVSVSPGQTASITCSGDNIGDQYAHWYQQKPGQSPVLVIYQDKNRPSGIPERFSGSNSGNTATLTISGTQAMDEADYYCATYTGFGSLAVFGGGTKLTVLGQPKAAPSVTLFPPSSEELQANKATLVCLISDFYPGAVTVAWKADSSPVKAGVETTTPSKQSNNKYAASSYLSLTPEQWKSHRSYSCQVTHEGSTVEKTVAPTECS
notes: Control IgG
Kd [1]: 89 nM | koff [1]: 0.039 s⁻¹ | kon [1]: 440000 M⁻¹ s⁻¹ | Kd [2]: 10 nM | koff [2]: 0.0099 s⁻¹ | kon [2]: 990000 M⁻¹ s⁻¹ | Kd [3]: 89 nM | koff [3]: 0.039 s⁻¹ | kon [3]: 440000 M⁻¹ s⁻¹ | Kd [4]: 10 nM | koff [4]: 0.0099 s⁻¹ | kon [4]: 990000 M⁻¹ s⁻¹ | Kd [5]: 89 nM | koff [5]: 0.039 s⁻¹ | kon [5]: 440000 M⁻¹ s⁻¹ | Kd [6]: 10 nM | koff [6]: 0.0099 s⁻¹ | kon [6]: 990000 M⁻¹ s⁻¹ | Kd [7]: 89 nM | koff [7]: 0.039 s⁻¹ | kon [7]: 440000 M⁻¹ s⁻¹ | Kd [8]: 10 nM | koff [8]: 0.0099 s⁻¹ | kon [8]: 990000 M⁻¹ s⁻¹ | Kd [9]: 89 nM | koff [9]: 0.039 s⁻¹ | kon [9]: 440000 M⁻¹ s⁻¹ | Kd [10]: 10 nM | koff [10]: 0.0099 s⁻¹ | kon [10]: 990000 M⁻¹ s⁻¹ | Kd [11]: 89 nM | koff [11]: 0.039 s⁻¹ | kon [11]: 440000 M⁻¹ s⁻¹ | Kd [12]: 10 nM | koff [12]: 0.0099 s⁻¹ | kon [12]: 990000 M⁻¹ s⁻¹

B2: anti-CD137 IgG4 with Fc variant G4m27 (antibody)
heavy: EVQLVQSGAEVKKPGESLRISCKGSGYSFSTYWISWVRQMPGKGLEWMGKIYPGDSYTNYSPSFQGQVTISADKSISTAYLQWSSLKASDTAMYYCARGYGIFDYWGQGTLVTVSSASTKGPSVFPLAPCSRSTSESTAALGCLVKDYFPEPVTVSWNSGALTSGVHTFPAVLQSSGLYSLSSVVTVPSSSLGTKTYTCNVDHKPSNTKVDKRVESKYGPPCPPCPAPEFLGPSVFLFPPKPKDTLMISRTPEVTCVVVDVEQEDPEVQFNWYVDGVEVHNAKTKPREEQFNSTYRVVSVLTVLHQDWLNGKEYKCKVSNKGLPSSIEKTISKAKGQPREPQVYTLPPSQEEMTKNQVSLTCLVKGFYPSDIAVEWESNGQPENNYKTTPPVLDSDGSFFLYSRLTVDKSRWQEGNVFSCSVMHEALHNHYTQKSLSLSLGK
light: SYELTQPPSVSVSPGQTASITCSGDNIGDQYAHWYQQKPGQSPVLVIYQDKNRPSGIPERFSGSNSGNTATLTISGTQAMDEADYYCATYTGFGSLAVFGGGTKLTVLGQPKAAPSVTLFPPSSEELQANKATLVCLISDFYPGAVTVAWKADSSPVKAGVETTTPSKQSNNKYAASSYLSLTPEQWKSHRSYSCQVTHEGSTVEKTVAPTECS
notes: copies: 2 + 2
Kd [13]: 66 nM | koff [13]: 0.025 s⁻¹ | kon [13]: 370000 M⁻¹ s⁻¹ | Kd [14]: 310 nM | koff [14]: 0.039 s⁻¹ | kon [14]: 130000 M⁻¹ s⁻¹ | Kd [15]: 23 nM | koff [15]: 0.01 s⁻¹ | kon [15]: 450000 M⁻¹ s⁻¹

B3: anti-CD137 IgG4 with Fc variant G4m25 (antibody)
heavy: EVQLVQSGAEVKKPGESLRISCKGSGYSFSTYWISWVRQMPGKGLEWMGKIYPGDSYTNYSPSFQGQVTISADKSISTAYLQWSSLKASDTAMYYCARGYGIFDYWGQGTLVTVSSASTKGPSVFPLAPCSRSTSESTAALGCLVKDYFPEPVTVSWNSGALTSGVHTFPAVLQSSGLYSLSSVVTVPSSSLGTKTYTCNVDHKPSNTKVDKRVESKYGPPCPPCPAPEFLGPSVFLFPPKPKDTLMISRTPEVTCVVVDVSQEDPEEQFNWYVDGVEVHNAKTKPREEQFNSTYRVVSVLTVLHQDWLNGKEYKCKVSNKGLPSSIEKTISKAKGQPREPQVYTLPPSQEEMTKNQVSLTCLVKGFYPSDIAVEWESNGQPENNYKTTPPVLDSDGSFFLYSRLTVDKSRWQEGNVFSCSVMHEALHNHYTQKSLSLSLGK
light: SYELTQPPSVSVSPGQTASITCSGDNIGDQYAHWYQQKPGQSPVLVIYQDKNRPSGIPERFSGSNSGNTATLTISGTQAMDEADYYCATYTGFGSLAVFGGGTKLTVLGQPKAAPSVTLFPPSSEELQANKATLVCLISDFYPGAVTVAWKADSSPVKAGVETTTPSKQSNNKYAASSYLSLTPEQWKSHRSYSCQVTHEGSTVEKTVAPTECS
notes: copies: 2 + 2
Kd [13]: 46 nM | koff [13]: 0.017 s⁻¹ | kon [13]: 380000 M⁻¹ s⁻¹ | Kd [16]: 660 nM | koff [16]: 0.038 s⁻¹ | kon [16]: 57000 M⁻¹ s⁻¹ | Kd [14]: 240 nM | koff [14]: 0.03 s⁻¹ | kon [14]: 130000 M⁻¹ s⁻¹ | Kd [15]: 19 nM | koff [15]: 0.009 s⁻¹ | kon [15]: 480000 M⁻¹ s⁻¹

B4: anti-CD137 IgG4 with Fc variant G4m19 (antibody)
heavy: EVQLVQSGAEVKKPGESLRISCKGSGYSFSTYWISWVRQMPGKGLEWMGKIYPGDSYTNYSPSFQGQVTISADKSISTAYLQWSSLKASDTAMYYCARGYGIFDYWGQGTLVTVSSASTKGPSVFPLAPCSRSTSESTAALGCLVKDYFPEPVTVSWNSGALTSGVHTFPAVLQSSGLYSLSSVVTVPSSSLGTKTYTCNVDHKPSNTKVDKRVESKYGPPCPPCPAPEFLSVFLFPPKPKDTLMISRTPEVTCVVVDVEQEDPEVQFNWYVDGVEVHNAKTKPREEQFNSTYRVVSVLTVLHQDWLNGKEYKCKVSNKGFPSSIEKTISKAKGQPREPQVYTLPPSQEEMTKNQVSLTCLVKGFYPSDIAVEWESNGQPENNYKTTPPVLDSDGSFFLYSRLTVDKSRWQEGNVFSCSVMHEALHNHYTQKSLSLSLGK
light: SYELTQPPSVSVSPGQTASITCSGDNIGDQYAHWYQQKPGQSPVLVIYQDKNRPSGIPERFSGSNSGNTATLTISGTQAMDEADYYCATYTGFGSLAVFGGGTKLTVLGQPKAAPSVTLFPPSSEELQANKATLVCLISDFYPGAVTVAWKADSSPVKAGVETTTPSKQSNNKYAASSYLSLTPEQWKSHRSYSCQVTHEGSTVEKTVAPTECS
notes: copies: 2 + 2
Kd [15]: 13 nM | koff [15]: 0.009 s⁻¹ | kon [15]: 690000 M⁻¹ s⁻¹
